{"source": "patent US20180016327A1", "about": "(Chugai, published 2018)", "binders": {"B1": {"name": "CFP0018 18L 96M (antibody, V domains shown)", "VH": "QVQLVQSGAEVKKPGSSVKVSCKASGGTFSSYAISWVRQAPGQGLEWMGGIIPIFGTANYAQKFQGRVTITADESTSTAYMELSSLRSEDTAVYYCARQLYGYYELDIWGQGTLVTVSS", "VL": "DIQMTQSPSSLSASVGDRVTITCRASQSISDDLAWYQQKPGKAPKLLIYEASSLQSGVPSRFSGSGSGTDFTLTISSLQPEDFATYYCQQYNSYPMTFGQGTKVEIK"}, "B2": {"name": "CFP0015 (antibody, V domains shown)", "VH": "QVQLLESGGGLVQPGGSLRLSCAASGFTFSSYAMSWVRQAPGKGLEWVSAISGSGGSTYYADSVKGRFTISRDNSKNTLYLQMNSLRAEDTAVYYCARGDQIWYDQWYYFDMWGQGTLVTVSS", "VL": "B1 VL with S30E, S53N, N92D, Y94S, M96L", "notes": "IgG format"}, "B3": {"name": "CFP0015 15L 30F (antibody, V domains shown)", "VH": "B2 VH", "VL": "B1 VL with S30F, S53N, N92D, Y94S, M96L"}, "B4": {"name": "CFP0015 15L 30P (antibody, V domains shown)", "VH": "B2 VH", "VL": "B1 VL with S30P, S53N, N92D, Y94S, M96L"}, "B5": {"name": "CFP0015 15L 50T (antibody, V domains shown)", "VH": "B2 VH", "VL": "B1 VL with S30E, E50T, S53N, N92D, Y94S, M96L"}, "B6": {"name": "CFP0015 15L 31A (antibody, V domains shown)", "VH": "B2 VH", "VL": "B1 VL with S30E, D31A, S53N, N92D, Y94S, M96L"}, "B7": {"name": "CFP0015 15L 31Y (antibody, V domains shown)", "VH": "B2 VH", "VL": "B1 VL with S30E, D31Y, S53N, N92D, Y94S, M96L"}, "B8": {"name": "CFP0015 15L 91H (antibody, V domains shown)", "VH": "B2 VH", "VL": "B1 VL with S30E, S53N, Y91H, N92D, Y94S, M96L"}, "B9": {"name": "CFP0015 15L 30N (antibody, V domains shown)", "VH": "B2 VH", "VL": "B1 VL with S30N, S53N, N92D, Y94S, M96L"}, "B10": {"name": "CFP0015 15L 50H (antibody, V domains shown)", "VH": "B2 VH", "VL": "B1 VL with S30E, E50H, S53N, N92D, Y94S, M96L"}, "B11": {"name": "CFP0018 18L 96W (antibody, V domains shown)", "VH": "B1 VH", "VL": "B1 VL with M96W"}, "B12": {"name": "CFP0015 15L 30Q (antibody, V domains shown)", "VH": "B2 VH", "VL": "B1 VL with S30Q, S53N, N92D, Y94S, M96L"}, "B13": {"name": "CFP0015 15L 53S (antibody, V domains shown)", "VH": "B2 VH", "VL": "B1 VL with S30E, N92D, Y94S, M96L"}, "B14": {"name": "CFP0015 15L 31N (antibody, V domains shown)", "VH": "B2 VH", "VL": "B1 VL with S30E, D31N, S53N, N92D, Y94S, M96L"}, "B15": {"name": "CFP0015 15L 91E (antibody, V domains shown)", "VH": "B2 VH", "VL": "B1 VL with S30E, S53N, Y91E, N92D, Y94S, M96L"}, "B16": {"name": "CFP0018 18L 96P (antibody, V domains shown)", "VH": "B1 VH", "VL": "B1 VL with M96P"}, "B17": {"name": "CFP0015 15L 30A (antibody, V domains shown)", "VH": "B2 VH", "VL": "B1 VL with S30A, S53N, N92D, Y94S, M96L"}, "B18": {"name": "CFP0015 15L 53T (antibody, V domains shown)", "VH": "B2 VH", "VL": "B1 VL with S30E, S53T, N92D, Y94S, M96L"}, "B19": {"name": "CFP0015 15L 32N (antibody, V domains shown)", "VH": "B2 VH", "VL": "B1 VL with S30E, D32N, S53N, N92D, Y94S, M96L"}, "B20": {"name": "CFP0015 15L 30H (antibody, V domains shown)", "VH": "B2 VH", "VL": "B1 VL with S30H, S53N, N92D, Y94S, M96L"}, "B21": {"name": "CFP0015 15L 32H (antibody, V domains shown)", "VH": "B2 VH", "VL": "B1 VL with S30E, D32H, S53N, N92D, Y94S, M96L"}, "B22": {"name": "CFP0015 15L 32T (antibody, V domains shown)", "VH": "B2 VH", "VL": "B1 VL with S30E, D32T, S53N, N92D, Y94S, M96L"}, "B23": {"name": "CFP0015 15L 31Q (antibody, V domains shown)", "VH": "B2 VH", "VL": "B1 VL with S30E, D31Q, S53N, N92D, Y94S, M96L"}, "B24": {"name": "CFP0015 15L 34N (antibody, V domains shown)", "VH": "B2 VH", "VL": "B1 VL with S30E, A34N, S53N, N92D, Y94S, M96L"}, "B25": {"name": "CFP0015 15L 32E (antibody, V domains shown)", "VH": "B2 VH", "VL": "B1 VL with S30E, D32E, S53N, N92D, Y94S, M96L"}, "B26": {"name": "CFP0015 15L 91D (antibody, V domains shown)", "VH": "B2 VH", "VL": "B1 VL with S30E, S53N, Y91D, N92D, Y94S, M96L"}, "B27": {"name": "CFP0015 15L 50Y (antibody, V domains shown)", "VH": "B2 VH", "VL": "B1 VL with S30E, E50Y, S53N, N92D, Y94S, M96L"}, "B28": {"name": "CFP0015 15L 31E (antibody, V domains shown)", "VH": "B2 VH", "VL": "B1 VL with S30E, D31E, S53N, N92D, Y94S, M96L"}, "B29": {"name": "CFP0015 15L 30S (antibody, V domains shown)", "VH": "B2 VH", "VL": "B1 VL with S53N, N92D, Y94S, M96L"}, "B30": {"name": "CFP0015 15L 30D (antibody, V domains shown)", "VH": "B2 VH", "VL": "B1 VL with S30D, S53N, N92D, Y94S, M96L"}, "B31": {"name": "CFP0015 15L 50S (antibody, V domains shown)", "VH": "B2 VH", "VL": "B1 VL with S30E, E50S, S53N, N92D, Y94S, M96L"}, "B32": {"name": "CFP0015 15L 53H (antibody, V domains shown)", "VH": "B2 VH", "VL": "B1 VL with S30E, S53H, N92D, Y94S, M96L"}, "B33": {"name": "CFP0015 15L 31H (antibody, V domains shown)", "VH": "B2 VH", "VL": "B1 VL with S30E, D31H, S53N, N92D, Y94S, M96L"}, "B34": {"name": "CFP0015 15L 50D (antibody, V domains shown)", "VH": "B2 VH", "VL": "B1 VL with S30E, E50D, S53N, N92D, Y94S, M96L"}, "B35": {"name": "CFP0018 18L 96V (antibody, V domains shown)", "VH": "B1 VH", "VL": "B1 VL with M96V"}, "B36": {"name": "CFP0015 15L 30Y (antibody, V domains shown)", "VH": "B2 VH", "VL": "B1 VL with S30Y, S53N, N92D, Y94S, M96L"}, "B37": {"name": "CFP0015 15L 31T (antibody, V domains shown)", "VH": "B2 VH", "VL": "B1 VL with S30E, D31T, S53N, N92D, Y94S, M96L"}, "B38": {"name": "CFP0015 15L 30T (antibody, V domains shown)", "VH": "B2 VH", "VL": "B1 VL with S30T, S53N, N92D, Y94S, M96L"}, "B39": {"name": "CFP0015 15L 32Q (antibody, V domains shown)", "VH": "B2 VH", "VL": "B1 VL with S30E, D32Q, S53N, N92D, Y94S, M96L"}, "B40": {"name": "CFP0015 15L 31S (antibody, V domains shown)", "VH": "B2 VH", "VL": "B1 VL with S30E, D31S, S53N, N92D, Y94S, M96L"}, "B41": {"name": "CFP0015 15L 50Q (antibody, V domains shown)", "VH": "B2 VH", "VL": "B1 VL with S30E, E50Q, S53N, N92D, Y94S, M96L"}, "B42": {"name": "CFP0015 15L 32Y (antibody, V domains shown)", "VH": "B2 VH", "VL": "B1 VL with S30E, D32Y, S53N, N92D, Y94S, M96L"}, "B43": {"name": "CFP0015 15L 50A (antibody, V domains shown)", "VH": "B2 VH", "VL": "B1 VL with S30E, E50A, S53N, N92D, Y94S, M96L"}, "B44": {"name": "CFP0018 18L 96Y (antibody, V domains shown)", "VH": "B1 VH", "VL": "B1 VL with M96Y"}, "B45": {"name": "CFP0015 15L 32S (antibody, V domains shown)", "VH": "B2 VH", "VL": "B1 VL with S30E, D32S, S53N, N92D, Y94S, M96L"}}, "note": "Substitutions are numbered along the chain they refer to."}
{"target": "T1, human C5 (human, UniProt P01031 19-673; P01031 678-1676, Beta and alpha chains are disulfide-linked and the protein is glycosylated.)", "T1 construct": "Either in-house recombinant C5 or plasma derived C5 (CALBIOCHEM) was used; also called recombinant human C5; plasma derived human C5", "assay": "Biacore, captured antibody, pH 7.4, 37 C;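 note: biacore binding response of anti-C5 antibody light chain variants captured on chip with human C5 injected, ACES running buffer containing 1.2 mM CaCl₂, parent light chain antibody set to 100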", "units": {"% binding (parent = 100)": "%"}, "description": "The light chain variants were tested for the binding affinity to C5 at pH 7.4 and at 37 degrees C. using Biacore T200 instrument (GE Healthcare) or Biacore 4000 instrument (GE Healthcare). […] Anti-C5 antibodies were captured on an immobilized molecule, and then human C5 was injected. The running buffer used was pH 7.4 ACES Buffer containing 1.2 mM Ca (20 mM ACES, 150 mM NaCl, 1.2 mM CaCl₂, 0.05% Tween 20). A value, % binding, was determined by normalizing binding response with that of antibody comprising parent light chain as 100."}
{"binder": "B1", "% binding (parent = 100)": 46.2}
{"binder": "B2", "% binding (parent = 100)": 100}
{"binder": "B3", "% binding (parent = 100)": 39.7}
{"binder": "B4", "% binding (parent = 100)": 60.9}
{"binder": "B5", "% binding (parent = 100)": 26.9}
{"binder": "B6", "% binding (parent = 100)": 30}
{"binder": "B7", "% binding (parent = 100)": 102}
{"binder": "B8", "% binding (parent = 100)": 81.5}
{"binder": "B9", "% binding (parent = 100)": 21.4}
{"binder": "B10", "% binding (parent = 100)": 8.8}
{"binder": "B11", "% binding (parent = 100)": 16.9}
{"binder": "B12", "% binding (parent = 100)": 42.6}
{"binder": "B13", "% binding (parent = 100)": 73.6}
{"binder": "B14", "% binding (parent = 100)": 42.2}
{"binder": "B15", "% binding (parent = 100)": 30.1}
{"binder": "B16", "% binding (parent = 100)": 18}
{"binder": "B17", "% binding (parent = 100)": 25.7}
{"binder": "B18", "% binding (parent = 100)": 75.8}
{"binder": "B19", "% binding (parent = 100)": 10.9}
{"binder": "B20", "% binding (parent = 100)": 18.4}
{"binder": "B21", "% binding (parent = 100)": 0.8}
{"binder": "B22", "% binding (parent = 100)": 78.1}
{"binder": "B23", "% binding (parent = 100)": 25.8}
{"binder": "B24", "% binding (parent = 100)": 100}
{"binder": "B25", "% binding (parent = 100)": 87.3}
{"binder": "B26", "% binding (parent = 100)": 20.4}
{"binder": "B27", "% binding (parent = 100)": 46.9}
{"binder": "B28", "% binding (parent = 100)": 22.4}
{"binder": "B29", "% binding (parent = 100)": 23.1}
{"binder": "B30", "% binding (parent = 100)": 59.9}
{"binder": "B31", "% binding (parent = 100)": 44.2}
{"binder": "B32", "% binding (parent = 100)": 80.8}
{"binder": "B33", "% binding (parent = 100)": 59.4}
{"binder": "B34", "% binding (parent = 100)": 131}
{"binder": "B35", "% binding (parent = 100)": 70.3}
{"binder": "B36", "% binding (parent = 100)": 51.3}
{"binder": "B37", "% binding (parent = 100)": 15.8}
{"binder": "B38", "% binding (parent = 100)": 25.1}
{"binder": "B39", "% binding (parent = 100)": 328}
{"binder": "B40", "% binding (parent = 100)": 36.5}
{"binder": "B41", "% binding (parent = 100)": 51.8}
{"binder": "B42", "% binding (parent = 100)": 15.1}
{"binder": "B43", "% binding (parent = 100)": 44.2}
{"binder": "B44", "% binding (parent = 100)": 23}
{"binder": "B45", "% binding (parent = 100)": 167}
